According to US20230192831A1:
Where a chain is given by its changes, count along the chain named.

B1: H4H6245P (antibody, human IgG4, V domains shown)
VH: EVQLVESGGGLVQPGGSLRLSCAASGFTFNSFWMSWVRQAPGKGLEWVANIKQDGSEKYYVDSVKGRFTISRDNAKNSVYLQMNSLRAEDTAVYYCARDLVTSFDYWGQGTLVTVSS
VL: DIQMTQSPSSLSASVGDRVTITCQASQDINNYLNWYQQKPGKAPKLLIYDASYLETGVPSGFSGSGSGTDFTFTISSLQPEDIATYYCQQYDSLPYTFGQGTKLEIK
B2: H4H6243P (antibody, human IgG4, V domains shown)
VH: QVQLVQSGAEVKKPGASVKVSCKVSGYTLTELSMHWVRQAPGKGLEWMGGFDPEDGETIYAQKFQDRVTMTEDTSTDTAYMELSSLRSEDTAVYYCVTDDYEILPEYPYNMDVWGQGTTVTVSS
VL: DIQMTQSPSSLSASVGDRVTITCRASQSISTYLNWYQQKPGKAPKLLIYAASSLQSGVPSRFSGSGSGTDFTLTIRSLQPEDFATYYCQQSHITPFTFGPGTKVDIK
B3: H4H6260P (antibody, human IgG4, V domains shown)
VH: QVQLVESGGGVVQPGRSLRLSCAASGFTFSTYGMHWVRQAPGKGLEWVAIIWYDGSNYYYADSVKGRFTISRDNSKNTLYLQMNSLRAEDTAVYYCAREDRNDVFDIWGQGTMVTVSS
VL: EIVLTQSPATLSLSPGERATLSCRASQSVSSFLAWYQQKPGQAPRLLIYDSSNRATGIPARFSGSGSGTDFTLTISSLEPEDFAVYYCQQLSNWPPITFGQGTRLEIK
B4: H4H6246P (antibody, human IgG4, V domains shown)
VH: QVQLVESGGGVVQPGRSLRLSCAASGFTFSSYGMHWVRQAPGKGLEWVAIIWYDGSNRYYADSVKGRFTISRDNSRNTLYLQMNSLRAEDTAVYYCARDEYGDYDYPFDYWGQGTLVTVSS
VL: DIQMTQSPSSLSASVGDRVTITCRASQGIRNDLGWFQQKPGKAPKRLIYAASSLQSGVPSRFSGSGSGTEFTLTISSLQPEDFATYYCLQHNTYPPFTFGPGTKVDIK
B5: H4H6252P (antibody, human IgG4, V domains shown)
VH: B4 VH with S31N, K43R, I50V, Y53F, R58K, R76K, A88S, A97T, E100D
VL: B4 VL with F36Y, H91Y
B6: H4H6250P (antibody, human IgG4, V domains shown)
VH: B4 VH with S31N, I50V, R58K, N77K, V93I, A97T, E100D
VL: B4 VL with F36Y, S65T, T93S
B7: H4H6248P (antibody, human IgG4, V domains shown)
VH: QVQLVESGGGVVQPGRSLRLSCAASGFTFSNYGMHWVRQVPGKGLEWVAVIWYDGSNKYYADSVKGRFTISRDNSKNTLYLQMNSVRAEDTAVYYCARDDYGDSPGFDYWGQGTLVTVSS
VL: EIVMTQSPATLSVSPGERATLSCRASQSVSSSLAWYQQKPGQAPRLLIYDASTRATGIPARFSGSGSGTEFTLTISGLQSEDFAVYYCQQYNNWPPWTFGQGTKVEIK
B8: H4H6251P (antibody, human IgG4, V domains shown)
VH: B7 VH with R16K, N31R, V40A, V86L, E89D, V93M, Y109F
VL: B7 VL with S32N, S65T, G77S, V85L, N92D, N93D
B9: H4H6270P (antibody, human IgG4, V domains shown)
VH: QVQLVESGGDVVQPGRSLRLSCAASGFTFSSYGMHWVRQAPGKGLEWVAIIWNDGSNKYYTDSVKGRFTISRDNSKNTLYLQMNGLRAEDTAIYYCARDQDQFDYWGQGTLVTVSS
VL: B7 VL with V29I, S31T, S32N, Q37R, E70D, G77S, N92S, W97Y, V105L

Experiments:
[1] = molecular target: recombinant human GREM1 (hGREM1-His; C-terminal 10His tagged, R&D, #5190-GR) (human) (UniProt O60565); assay: cell-based or functional assay
recombinant human GREM1 (hGREM1-His; C-terminal 10His tagged, R&D, #5190-GR) (human), sequence (O60565 other isoform, or with tags, fused parts or gaps limits assumed, form in doubt): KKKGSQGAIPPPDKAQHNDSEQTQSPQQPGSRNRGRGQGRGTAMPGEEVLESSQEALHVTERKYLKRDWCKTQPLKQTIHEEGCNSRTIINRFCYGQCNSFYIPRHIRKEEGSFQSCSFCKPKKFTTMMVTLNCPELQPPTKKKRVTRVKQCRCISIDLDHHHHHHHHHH

[2] = molecular target: recombinant human GREM1 (hGREM1-His; C-terminal 10His tagged, R&D, #5190-GR) (human) (UniProt O60565); assay: BLI Octet, captured mAb, 100 nM GREM1
[3] = molecular target: recombinant human GREM1 (hGREM1-His; C-terminal 10His tagged, R&D, #5190-GR) (human) (UniProt O60565); assay: BLI Octet, captured mAb, 100 nM GREM1 + 5 uM heparin
[4] = molecular target: recombinant human GREM1 (hGREM1-His; C-terminal 10His tagged, R&D, #5190-GR) (human) (UniProt O60565); assay: BLI Octet, captured mAb, 100 nM GREM1 without vs with 5 uM heparin

Binder	IC50 [M], W-20-17/BRE-luc luciferase bioassay, 100 pM hBMP4 and 10 nM hGREM1-His [1] [M]	hGREM1-His Inhibition IC50, M; W-20-17 cell differentiation assay (alkaline phosphatase) [1] [nM]	Binding Signal with 30 sec Association (nm) [2] [nm]	Binding Signal with 300 sec Association (nm) [2] [nm]	Binding Signal with 30 sec Association (nm) [3] [nm]	Binding Signal with 300 sec Association (nm) [3] [nm]	Reduction in Signal from Heparin at 30 sec [4] [nm]	Reduction in Signal from Heparin at 300 sec [4] [nm]
B1	5.3e-10	6.1	0.23	0.41	0.02	0.22	0.21	0.19
B2	5.4e-10	5.9	0.3	0.47	0	0.21	0.3	0.26
B3	4.6e-10	3.3	0.24	0.42	0.07	0.37	0.17	0.05
B4	5.6e-10	6.2	0.19	0.38	0.06	0.34	0.13	0.04
B5	8.2e-10	6.1	0.23	0.44	0.04	0.35	0.19	0.09
B6	4.4e-10	12	0.2	0.37	0.06	0.32	0.14	0.05
B7	5.3e-10	5.6	0.21	0.42	0.04	0.37	0.17	0.05
B8	6.3e-10	11	0.27	0.45	0.03	0.36	0.24	0.09
B9	5.4e-10	3.1	0.2	0.39	0.05	0.33	0.15	0.06
